Experiment: Biotransformation of flavanones with whole cells of E. coli BL21 (DE3)-AthF3H
Type: biochemical
Conditions: whole cells OD10, 1 g/L substrate, pH 7, 30° C., 2 h, all substrates
Method: The gene (GenBank: U33932) encoding the flavanone-3-hydroxylase (F3H) from Arabidopsis thaliana was ordered codon-optimized for E. coli. E. coli BL21 (DE3) was transformed with the resulting construct. For the precultures LB medium containing kanamycin (50 μg/mL) was inoculated with E. coli BL21 (DE3) strains harboring the constructs and incubated at 37° C. and 200 rpm over-night. The preculture was used to inoculate the main culture of 400 mL LB medium containing kanamycin (50 μg/mL), which was incubated at 37° C. until the optical density at 600 nm (OD600) reached approximately 0.8. Expression of AthF3H was induced by 0.1 mM IPTG (isopropyl-D-thiogalactopyranoside) and the cultures were shaken at 20-25° C. for 20 h. The cells were harvested by centrifugation, and then resuspended in 100 mM potassium phosphate buffer (KPi, pH 7) to an OD of 50.
Biotransformations were carried out with whole cells of E. coli BL21 (DE3)-AthF3H at OD10 in a total volume of 1 mL in 100 mM potassium phosphate buffer (KPi, pH 7) containing 10% DMSO, 1 g/L of eriodictyol, hesperetin, homoeriodictyol, pinocembrin, liquiritigenin or 5-deoxyeriodictyol, 10 mM α-ketoglutarate, 10 mM ascorbic acid and 0.25 mM FeSO4 at 30° C. and 1000 rpm for 2 h. […]

B1: AthF3H: flavanone-3-hydroxylase (F3H) from Arabidopsis thaliana (GenBank: U33932), expressed in E. coli BL21 (DE3) (protein, UniProt Q9S818 1-358, looked up)
Naringenin,2-oxoglutarate …: MAPGTLTELAGESKLNSKFVRDEDERPKVAYNVFSDEIPVISLAGIDDVDGKRGEICRQIVEACENWGIFQVVDHGVDTNLVADMTRLARDFFALPPEDKLRFDMSGGKKGGFIVSSHLQGEAVQDWREIVTYFSYPVRNRDYSRWPDKPEGWVKVTEEYSERLMSLACKLLEVLSEAMGLEKESLTNACVDMDQKIVVNYYPKCPQPDLTLGLKRHTDPGTITLLLQDQVGGLQATRDNGKTWITVQPVEGAFVVNLGDHGHFLSNGRFKNADHQAVVNSNSSRLSIATFQNPAPDATVYPLKVREGEKAILEEPITFAEMYKRKMGRDLELARLKKLAKEERDHKEVDKPVDQIFA
conversion of flavanone substrates by F3H: full conversion of the available (S)-enantiomer

— US20260286408A1, “PROCESS FOR MAKING FLAVANONE DERIVATIVES” (priority 2022, published 2026)
